Experimental data published in article doi:10.1101/2021.04.12.439405 (bioRxiv, 2021).

Columns and labels:
Test in all cases: native MS
[1] = target: MukB^N (MukB Neck) (E. coli)
[2] = target: MukB^HN (MukB Head-Neck) (E. coli)
[3] = target: the molecule itself

Sequence of Acyl Carrier Protein (AcpP), co-purified with MukB proteins (P0A6A8 whole entry): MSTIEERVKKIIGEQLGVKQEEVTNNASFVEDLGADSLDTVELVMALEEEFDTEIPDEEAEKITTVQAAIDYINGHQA

stoichiometry N [1] | stoichiometry N [2] | Molecule | binding result [3]
2 | – | MukB^N (MukB Neck) (domain or fragment) | –
1 | 1 | Acyl Carrier Protein (AcpP), co-purified with MukB proteins (from UniProt P0A6A8 1-78) (natural protein) | –
– | – | MukB-His (wild type MukB) (natural protein, E. coli, UniProt P22523 1-1486, looked up) MIERGKFRSLTLINWNGFFARTFDLDELVTTLSGGNGAGKSTTMAAFVTALIPDLTLLHFRNTTEAGATSGSRDKGLHGKLKAGVCYSMLDTINSRHQRVVVGVRLQQVAGRDRKVDIKPFAIQGLPMSVQPTQLVTETLNERQARVLPLNELKDKLEAMEGVQFKQFNSITDYHSLMFDLGIIARRLRSASDRSKFYRLIEASLYGGISSAITRSLRDYLLPENSGVRKAFQDMEAALRENRMTLEAIRVTQSDRDLFKHLISEATNYVAADYMRHANERRVHLDKALEFRRELHTSRQQLAAEQYKHVDMARELAEHNGAEGDLEADYQAASDHLNLVQTALRQQEKIERYEADLDELQIRLEEQNEVVAEAIERQQENEARAEAAELEVDELKSQLADYQQALDVQQTRAIQYNQAIAALNRAKELCHLPDLTADCAAEWLETFQAKELEATEKMLSLEQKMSMAQTAHSQFEQAYQLVVAINGPLARNEAWDVARELLREGVDQRHLAEQVQPLRMRLSELEQRLREQQEAERLLADFCKRQGKNFDIDELEALHQELEARIASLSDSVSNAREERMALRQEQEQLQSRIQSLMQRAPVWLAAQNSLNQLSEQCGEEFTSSQDVTEYLQQLLEREREAIVERDEVGARKNAVDEEIERLSQPGGSEDQRLNALAERFGGVLLSEIYDDVSLEDAPYFSALYGPSRHAIVVPDLSQVTEHLEGLTDCPEDLYLIEGDPQSFDDSVFSVDELEKAVVVKIADRQWRYSRFPEVPLFGRAARESRIESLHAEREVLSERFATLSFDVQKTQRLHQAFSRFIGSHLAVAFESDPEAEIRQLNSRRVELERALSNHENDNQQQRIQFEQAKEGVTALNRILPRLNLLADDSLADRVDEIRERLDEAQEAARFVQQFGNQLAKLEPIVSVLQSDPEQFEQLKEDYAYSQQMQRDARQQAFALTEVVQRRAHFSYSDSAEMLSGNSDLNEKLRERLEQAEAERTRAREALRGHAAQLSQYNQVLASLKSSYDTKKELLNDLQRELQDIGVRADSGAEERARIRRDELHAQLSNNRSRRNQLEKALTFCEAEMDNLTRKLRKLERDYFEMREQVVTAKAGWCAVMRMVKDNGVERRLHRRELAYLSADDLRSMSDKALGALRLAVADNEHLRDVLRMSEDPKRPERKIQFFVAVYQHLRERIRQDIIRTDDPVEAIEQMEIELSRLTEELTSREQKLAISSRSVANIIRKTIQREQNRIRMLNQGLQNVSFGQVNSVRLNVNVRETHAMLLDVLSEQHEQHQDLFNSNRLTFSEALAKLYQRLNPQIDMGQRTPQTIGEELLDYRNYLEMEVEVNRGSDGWLRAESGALSTGEAIGTGMSILVMVVQSWEDESRRLRGKDISPCRLLFLDEAARLDARSIATLFELCERLQMQLIIAAPENISPEKGTTYKLVRKVFQNTEHVHVVGLRGFAPQLPETLPGTDEAPSQAS | binds
